Data: the supplement of paper PMC9112550, “Optimization of the antimicrobial peptide Bac7 by deep mutational scanning” (BMC Biology, 2022)

Tested on: Escherichia coli TOP10
Experiment: shrunken log2 fold change of peptide-encoding DNA abundance (4.5 h post-induction vs induction); higher = less antimicrobial activity (less host growth inhibition)
Settings: time post-induction: 4.5 h; library: site-saturation at positions 5, 18, 19, 20
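Further: peptides expressed intracellularly from a pBAD plasmid library in pooled LB shake-flask culture, induced with 0.3% L-arabinose, DNA abundance read by NGS, three biological replicates, DESeq2 with apeglm shrinkage.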

Row | Sequence | shrunken log2 fold change
1 | RRIRERPPRLPRPRPRPRPPPRP | 0.69
2 | RRIRPRPPRLPRPRPRPNEMPRP | 0.0125
3 | RRIRGRPPRLPRPRPRPKFMPRP | 0.316
4 | RRIRYRPPRLPRPRPRPVQNPRP | -0.0153
5 | RRIRTRPPRLPRPRPRPAPVPRP | 0.0626
6 | RRIRGRPPRLPRPRPRPYQGPRP | 0.0167
7 | RRIRFRPPRLPRPRPRPANHPRP | -0.264
8 | RRIRFRPPRLPRPRPRPHDWPRP | 0.0906
9 | RRIRARPPRLPRPRPRPNRFPRP | 0.145
10 | RRIRKRPPRLPRPRPRPRAGPRP | 0.48
11 | RRIRQRPPRLPRPRPRPVCNPRP | -0.0714
12 | RRIRQRPPRLPRPRPRPMTAPRP | 0.291
13 | RRIRFRPPRLPRPRPRPMYIPRP | -1.09
14 | RRIRFRPPRLPRPRPRPVYDPRP | -0.977
15 | RRIRSRPPRLPRPRPRPAYLPRP | -0.731
16 | RRIRLRPPRLPRPRPRPTIVPRP | -0.183
17 | RRIRRRPPRLPRPRPRPNMYPRP | -0.16
18 | RRIRERPPRLPRPRPRPQALPRP | -0.378
19 | RRIRVRPPRLPRPRPRPQNAPRP | 0.00238
20 | RRIRFRPPRLPRPRPRPELWPRP | 0.677
21 | RRIRTRPPRLPRPRPRPIPDPRP | -0.32
22 | RRIRTRPPRLPRPRPRPTQQPRP | 0.175
23 | RRIRFRPPRLPRPRPRPYFAPRP | -0.572
24 | RRIRSRPPRLPRPRPRPAPSPRP | 1.24
25 | RRIRIRPPRLPRPRPRPYRIPRP | -0.485

Row | Sequence | shrunken log2 fold change
26 | RRIRGRPPRLPRPRPRPKFFPRP | 0.36
27 | RRIRSRPPRLPRPRPRPEENPRP | 0.64
28 | RRIRARPPRLPRPRPRPDHEPRP | -0.0137
29 | RRIRIRPPRLPRPRPRPPCCPRP | -0.31
30 | RRIRMRPPRLPRPRPRPPNFPRP | 0.35
31 | RRIRLRPPRLPRPRPRPLEHPRP | 0.0313
32 | RRIRLRPPRLPRPRPRPSLNPRP | -0.625
33 | RRIRDRPPRLPRPRPRPKMMPRP | -0.154
34 | RRIRWRPPRLPRPRPRPLCRPRP | 0.17
35 | RRIRARPPRLPRPRPRPDSYPRP | -0.111
36 | RRIRNRPPRLPRPRPRPWRHPRP | -0.109
37 | RRIRRRPPRLPRPRPRPKKAPRP | -0.00843
38 | RRIRARPPRLPRPRPRPEYGPRP | 0.11
39 | RRIRHRPPRLPRPRPRPNRTPRP | 0.031
40 | RRIRHRPPRLPRPRPRPNNYPRP | -0.857
41 | RRIRYRPPRLPRPRPRPMKIPRP | -0.0574
42 | RRIRIRPPRLPRPRPRPKHCPRP | -0.405
43 | RRIRRRPPRLPRPRPRPPMFPRP | 0.26
44 | RRIRFRPPRLPRPRPRPRSTPRP | 0.421
45 | RRIRLRPPRLPRPRPRPTFSPRP | -0.0485
46 | RRIRHRPPRLPRPRPRPGFDPRP | 0.105
47 | RRIRNRPPRLPRPRPRPHTFPRP | -0.0139
48 | RRIRKRPPRLPRPRPRPYGIPRP | -0.329
49 | RRIRFRPPRLPRPRPRPQWLPRP | -0.0613
50 | RRIRCRPPRLPRPRPRPKRDPRP | 5.21

Row | Sequence | shrunken log2 fold change
51 | RRIRLRPPRLPRPRPRPPRAPRP | 0.875
52 | RRIRYRPPRLPRPRPRPDAYPRP | -0.599
53 | RRIRCRPPRLPRPRPRPARIPRP | 0.0785
54 | RRIRYRPPRLPRPRPRPIDIPRP | -0.0256
55 | RRIRLRPPRLPRPRPRPECTPRP | 0.114
56 | RRIRYRPPRLPRPRPRPGDDPRP | -0.286
57 | RRIRYRPPRLPRPRPRPSCAPRP | -0.921
58 | RRIRERPPRLPRPRPRPADTPRP | -0.262
59 | RRIRERPPRLPRPRPRPHQAPRP | 0.0779
60 | RRIRQRPPRLPRPRPRPNIMPRP | -0.462
61 | RRIRFRPPRLPRPRPRPHWKPRP | -0.162
62 | RRIRYRPPRLPRPRPRPIGWPRP | 0.11
63 | RRIRLRPPRLPRPRPRPYWGPRP | -0.304
64 | RRIRCRPPRLPRPRPRPRTDPRP | 0.0321
65 | RRIRARPPRLPRPRPRPRDFPRP | 0.0137
66 | RRIRGRPPRLPRPRPRPVQNPRP | 0.588
67 | RRIRERPPRLPRPRPRPHHSPRP | -0.603
68 | RRIRRRPPRLPRPRPRPCDNPRP | 0.0406
69 | RRIRDRPPRLPRPRPRPSDLPRP | 0.0645
70 | RRIRWRPPRLPRPRPRPWKTPRP | 0.149
71 | RRIRKRPPRLPRPRPRPFEKPRP | -0.045
72 | RRIRPRPPRLPRPRPRPESHPRP | -0.00995
73 | RRIRPRPPRLPRPRPRPIRAPRP | -0.106
74 | RRIRWRPPRLPRPRPRPPLHPRP | 0.417
75 | RRIRMRPPRLPRPRPRPSTNPRP | 0.0712

Row | Sequence | shrunken log2 fold change
76 | RRIRDRPPRLPRPRPRPADDPRP | 0.637
77 | RRIRCRPPRLPRPRPRPHGGPRP | -0.154
78 | RRIRKRPPRLPRPRPRPEVVPRP | 0.016
79 | RRIRIRPPRLPRPRPRPHQAPRP | -0.0342
80 | RRIRHRPPRLPRPRPRPEKNPRP | -0.0893
81 | RRIRMRPPRLPRPRPRPWWYPRP | -1.27
82 | RRIRVRPPRLPRPRPRPAALPRP | 0.0637
83 | RRIRQRPPRLPRPRPRPAIQPRP | -0.679
84 | RRIRGRPPRLPRPRPRPRLHPRP | 0.653
85 | RRIRARPPRLPRPRPRPCCPPRP | -0.273
86 | RRIRYRPPRLPRPRPRPERCPRP | -0.12
87 | RRIRIRPPRLPRPRPRPLDHPRP | -0.333
88 | RRIRQRPPRLPRPRPRPRHHPRP | 0.0815
89 | RRIRNRPPRLPRPRPRPMEAPRP | 0.0369
90 | RRIRRRPPRLPRPRPRPGFVPRP | 0.423
91 | RRIRLRPPRLPRPRPRPEKIPRP | -0.223
92 | RRIRWRPPRLPRPRPRPKLQPRP | 0.182
93 | RRIRYRPPRLPRPRPRPAYLPRP | -0.244
94 | RRIRMRPPRLPRPRPRPDGFPRP | 0.0516
95 | RRIRKRPPRLPRPRPRPICSPRP | -9.46e-05
96 | RRIRNRPPRLPRPRPRPGMRPRP | 0.504
97 | RRIRHRPPRLPRPRPRPEQPPRP | -0.0288
98 | RRIRQRPPRLPRPRPRPFTFPRP | -0.249
99 | RRIRGRPPRLPRPRPRPTDMPRP | 1.1
100 | RRIRPRPPRLPRPRPRPGADPRP | 0.407

Row | Sequence | shrunken log2 fold change
101 | RRIRCRPPRLPRPRPRPPYAPRP | 0.141
102 | RRIRARPPRLPRPRPRPCMGPRP | 0.00996
103 | RRIRSRPPRLPRPRPRPIVVPRP | 0.027
104 | RRIRARPPRLPRPRPRPTTIPRP | 0.0651
105 | RRIRGRPPRLPRPRPRPCMYPRP | 0.013
106 | RRIRCRPPRLPRPRPRPEYGPRP | -0.167
107 | RRIRHRPPRLPRPRPRPATCPRP | -0.196
108 | RRIRVRPPRLPRPRPRPNYKPRP | -0.509
109 | RRIRNRPPRLPRPRPRPLMKPRP | -0.431
110 | RRIRHRPPRLPRPRPRPGNYPRP | 0.113
111 | RRIRWRPPRLPRPRPRPQIFPRP | -0.053
112 | RRIRWRPPRLPRPRPRPRHKPRP | -0.0379
113 | RRIRNRPPRLPRPRPRPLAQPRP | 0.0157
114 | RRIRTRPPRLPRPRPRPELNPRP | 0.195
115 | RRIRMRPPRLPRPRPRPYRGPRP | 0.148
116 | RRIRGRPPRLPRPRPRPSHLPRP | -0.158
117 | RRIRPRPPRLPRPRPRPVGPPRP | 0.427
118 | RRIRKRPPRLPRPRPRPKGNPRP | 0.325
119 | RRIRLRPPRLPRPRPRPCVDPRP | 0.0214
120 | RRIRHRPPRLPRPRPRPPFHPRP | -0.119
121 | RRIRNRPPRLPRPRPRPKKWPRP | -0.00407
122 | RRIRVRPPRLPRPRPRPAMAPRP | 0.418
123 | RRIRTRPPRLPRPRPRPPGKPRP | 0.129
124 | RRIRERPPRLPRPRPRPTERPRP | 0.0425
125 | RRIRTRPPRLPRPRPRPWHDPRP | -0.0708
